Results as given in patent US11779649B2, “Antibodies to PMEL17 and conjugates thereof” (Novartis AG, priority 2018, dated 2023).

T1: human PMEL (Homo sapiens, UniProt P40967)
T1 sequence (P40967 25-661): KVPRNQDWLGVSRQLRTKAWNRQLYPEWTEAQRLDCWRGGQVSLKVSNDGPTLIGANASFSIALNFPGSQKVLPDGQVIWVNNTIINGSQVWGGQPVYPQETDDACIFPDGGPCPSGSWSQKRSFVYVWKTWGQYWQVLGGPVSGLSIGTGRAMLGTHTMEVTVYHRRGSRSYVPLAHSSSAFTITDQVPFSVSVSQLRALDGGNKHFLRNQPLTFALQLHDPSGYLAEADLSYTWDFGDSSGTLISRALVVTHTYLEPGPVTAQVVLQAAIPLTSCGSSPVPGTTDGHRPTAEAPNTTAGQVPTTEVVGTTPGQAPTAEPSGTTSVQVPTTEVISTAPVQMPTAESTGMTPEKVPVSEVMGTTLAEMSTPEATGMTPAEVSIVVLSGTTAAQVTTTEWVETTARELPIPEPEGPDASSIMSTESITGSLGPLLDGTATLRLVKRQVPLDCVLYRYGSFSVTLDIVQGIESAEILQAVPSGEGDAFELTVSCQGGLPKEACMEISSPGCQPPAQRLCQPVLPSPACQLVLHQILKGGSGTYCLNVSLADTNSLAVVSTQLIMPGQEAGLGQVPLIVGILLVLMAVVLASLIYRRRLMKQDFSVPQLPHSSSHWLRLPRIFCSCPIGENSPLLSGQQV

T2: human PMEL17 (Homo sapiens, UniProt P40967)
T2 construct: G-361 melanoma cell line expresses human PMEL17 at a lower level compared to the HKB11-human PMEL17 overexpressing cell line; endogenous in cells; host or cells: G-361 (human melanoma)
T2 sequence (P40967 25-661): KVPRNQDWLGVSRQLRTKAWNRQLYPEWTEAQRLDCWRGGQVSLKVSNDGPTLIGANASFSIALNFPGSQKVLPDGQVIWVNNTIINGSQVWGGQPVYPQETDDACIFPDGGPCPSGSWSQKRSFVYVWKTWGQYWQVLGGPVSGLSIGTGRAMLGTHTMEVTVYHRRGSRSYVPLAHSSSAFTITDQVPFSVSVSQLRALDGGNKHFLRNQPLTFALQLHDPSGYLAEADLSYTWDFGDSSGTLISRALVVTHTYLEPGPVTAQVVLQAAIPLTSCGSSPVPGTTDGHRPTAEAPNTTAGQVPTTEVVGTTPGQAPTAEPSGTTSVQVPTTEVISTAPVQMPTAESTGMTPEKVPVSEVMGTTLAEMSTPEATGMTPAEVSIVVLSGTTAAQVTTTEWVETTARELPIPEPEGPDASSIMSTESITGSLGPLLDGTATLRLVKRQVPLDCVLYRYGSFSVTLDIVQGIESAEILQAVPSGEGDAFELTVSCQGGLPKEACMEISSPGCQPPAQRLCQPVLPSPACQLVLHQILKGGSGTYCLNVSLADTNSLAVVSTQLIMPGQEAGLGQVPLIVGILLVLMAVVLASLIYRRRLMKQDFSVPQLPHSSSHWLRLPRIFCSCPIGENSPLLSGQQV

T3: mouse PMEL17 (Mus musculus, UniProt Q60696)
T3 construct: B16-F10 (mouse PMEL17 expressing melanoma); endogenous in cells; host or cells: B16-F10 (mouse melanoma)
T3 sequence (Q60696 24-626): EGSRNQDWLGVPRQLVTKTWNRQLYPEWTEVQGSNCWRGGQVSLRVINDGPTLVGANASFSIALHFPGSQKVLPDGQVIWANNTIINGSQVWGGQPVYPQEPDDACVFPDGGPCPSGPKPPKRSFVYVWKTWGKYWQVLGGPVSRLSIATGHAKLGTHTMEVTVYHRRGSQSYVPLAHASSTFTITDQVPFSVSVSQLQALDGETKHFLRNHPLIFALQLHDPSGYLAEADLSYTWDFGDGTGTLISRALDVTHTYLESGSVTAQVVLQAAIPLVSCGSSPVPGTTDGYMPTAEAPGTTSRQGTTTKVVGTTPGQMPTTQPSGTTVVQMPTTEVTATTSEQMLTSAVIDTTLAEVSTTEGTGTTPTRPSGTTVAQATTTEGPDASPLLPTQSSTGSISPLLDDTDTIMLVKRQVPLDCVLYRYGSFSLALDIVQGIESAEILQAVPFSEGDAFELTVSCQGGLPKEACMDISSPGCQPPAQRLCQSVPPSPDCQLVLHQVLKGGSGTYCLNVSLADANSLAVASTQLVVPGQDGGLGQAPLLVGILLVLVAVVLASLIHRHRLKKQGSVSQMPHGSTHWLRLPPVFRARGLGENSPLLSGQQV


Tests used:
[1] = molecular target: T1, human PMEL; assay: SPR epitope binning (competitive binding assay, Biacore T200); conditions: FIG. 20B-20C
Description: SPR was used to assess epitope binning for anti-PMEL antibodies on a T200 Biacore instrument (catalog #28975001, GE Healthcare Life Sciences).
Surface Plasmon Resonance (SPR) is a technique to measure bimolecular interactions in real-time in a label free environment. Molecules are immobilized on a sensor surface over which a sample solution flows. The interaction between the immobilized molecule and the flowing sample causes a refractive index change. The refractive index change is an altering of the angle at which reduced intensity polarized light is reflected from the supporting glass plane. This angle change is caused by binding or dissociation of molecules from the sensor surface and is proportional to the mass of bound material and is recorded by the instrument in a sensorgram. […] From the association and dissociation event responses, an association rate (ka), a dissociation rate (kd) and an overall affinity (KD) are determined. For epitope binning, KDs are not determined.
In the first step, G1 LC 3J and 17A9 antibodies were directly immobilized onto a CM5 chip surface via Amine Coupling to achieve approximately 2000RU respectively on Fc2 and Fc3. […] The immobilized antibodies on Fc2 and Fc3 are the base antibodies in the experiment […]
The data was analyzed using the Biacore T200 Evaluation Software version 3.0.

[2] = system: rat PMEL17; assay: Apparent affinity by FACS titration of IgGs on HKB11-rat PMEL17 cells; format: binding; conditions: Alexa Fluor
Protocol: Purified IgGs were titrated on a variety of PMEL17 expressing and PMEL17 non expressing cell lines (for control) to determine EC50 values. Cells were harvested using Accutase, adjusted to ˜4×10^6 cells/ml into FACS buffer (PBS, 3% FCS and 0.02% Na-Azide) and kept on ice to avoid internalization. 15 μl of cell suspension/well were transferred into 384 well V-bottom plates (Greiner, Cat #781280) and incubated with 15 μl of IgGs at different concentrations (most commonly from 200 to 3.5×10−3 nM) for 1 hour at 4° C., gently shaking. Following incubation, cells were washed three times with FACS buffer. After each washing step, cells were centrifuged (250×g, 5 min, 4° C.) and carefully resuspended. […] After 3 washing steps, cells were resuspended in 30 μl of FACS buffer and samples were measured using the IntelliCyt HTFC device. EC50 values were calculated using the Graphpad Prism software. […]
(§1) The cross-specificity of the IgGs was evaluated in does response FACS on G-361 (human melanoma), HKB11-cyno-PMEL17, HKB11-rat PMEL17 and B16-F10 (mouse PMEL17 expressing melanoma) (Table 3). […]

[3] = system: PMEL17; assay: Cross-reactivity (cross-specificity profile) of anti-PMEL17 IgGs in dose response FACS; format: binding; set-up: key: h/c/r/m: human/cyno/rat/mouse; h/c/r: human/cyno/rat; h/c/(m): human/cyno/mouse; h/c: human/cyno; conditions: h human, c cyno, r rat, m mouse
Protocol: (§2) The cross-specificity of the IgGs was evaluated in does response FACS on G-361 (human melanoma), HKB11-cyno-PMEL17, HKB11-rat PMEL17 and B16-F10 (mouse PMEL17 expressing melanoma) (Table 3). Testing on G-361 was performed using a detection antibody labelled to PE. In contrast, an Alexa-Fluor labelled detection antibody had to be used for testing the candidates on the other cell lines so as to reach detectable signals.
IgGs were classified into several epitope groups according to their cross-specificity profiles.

[4] = molecular target: T2, human PMEL17; assay: Apparent affinity by FACS titration of IgGs on G-361 melanoma cell line; format: binding; conditions: G-361, PE-labelled detection antibody; read-out: FACS EC50 (nM) G-361 (PE)
Protocol: (§3) Purified IgGs were titrated on a variety of PMEL17 expressing and PMEL17 non expressing cell lines (for control) to determine EC50 values. Cells were harvested using Accutase, adjusted to ˜4×10^6 cells/ml into FACS buffer (PBS, 3% FCS and 0.02% Na-Azide) and kept on ice to avoid internalization. 15 μl of cell suspension/well were transferred into 384 well V-bottom plates (Greiner, Cat #781280) and incubated with 15 μl of IgGs at different concentrations (most commonly from 200 to 3.5×10−3 nM) for 1 hour at 4° C., gently shaking. Following incubation, cells were washed three times with FACS buffer. After each washing step, cells were centrifuged (250×g, 5 min, 4° C.) and carefully resuspended. 15 μl of detection antibody conjugated to PE (PE-conjugated goat anti-human IgG, F(ab′)2 fragment specific, 1:150 in FACS buffer; Jackson Immuno Research, #109-116-097) or Alexa Fluor (Alexa Fluor-conjugated goat anti-human IgG, F(ab′)2 fragment specific, 1:150 in FACS buffer; Jackson Immuno Research, #109-606-097) were added and samples were incubated for 45 minutes to 1 hour on ice in the dark, gently shaking. After 3 washing steps, cells were resuspended in 30 μl of FACS buffer and samples were measured using the IntelliCyt HTFC device. EC50 values were calculated using the Graphpad Prism software. G-361 melanoma cell line expresses human PMEL17 at a lower level compared to the HKB11-human PMEL17 overexpressing cell line, and therefore allows a more precise ranking of the clones depending on their apparent affinity on cells.
as §1

[5] = system: UACC-62; assay: FACS titration of IgGs on UACC-62 cells; format: binding; conditions: UACC-62, PE-labelled detection antibody
Protocol: as §3

[6] = molecular target: T3, mouse PMEL17; assay: Apparent affinity by FACS titration of IgGs on B16-F10 melanoma cells; format: binding; conditions: Alexa Fluor
Protocol: as §3, §2

Molecule | epitope binning [1] | EC50 [2] | Cross spe profile (based on C14 detection ab) [3] | EC50 [4] | UACC-62 (PE) [5] | EC50 [6]
G1 LC 3J: anti-PMEL antibody G1 with 3J light chain (antibody, V domains shown) VH: QVQLVQSGAEVKKPGSSVKVSCKASGGTFSDYAITWVRQAPGQGLEWMGGIIPIFGTANYAQKFQGRVTITADESTSTAYMELSSLRSEDTAVYYCAREGGLLTDISYSRYWFAYWGQGTLVTVSS VL: SYELTQPLSVSVALGQTARITCSGDALRDKFVYWYQQKPGQAPVLVIYDDNNRPSGIPERFSGSNSGNTATLTISRAQAGDEADYYCQSWDHSYSLVVFGGGTKLTVL | bind to different epitopes |  |  |  |  | 
Y010417: anti-PMEL17 antibody (IgG) (antibody, V domains shown) VH: EVQLVQSGAEVKKPGESLKISCKGSGYSFTSYWIGWVRQMPGKGLEWMGIIYPGDSDTRYSPSFQGQVTISADKSISTAYLQWSSLKASDTAMYYCARGSSAASGLSGDLWGQGTLVTVSS VL: DIQMTQSPSSLSASVGDRVTITCRASQSISSYLNWYQQKPGKAPKLLIYAASSLQSGVPSRFSGSGSGTDFTLTISSLQPEDFATYYCQQDYYSPFTFGQGTKVEIK |  | > 100 nM | h/c | 2.8 nM | Negative | > 100 nM
